This is an account of results in paper PMC5291697.

For this experiment, the target named is Ncore-MoRE (MeV N with MoRE relocated from Ntail to Ncore position 138) (measles virus (MeV-Edm strain)). In words: co-IP.

B1: standard measles virus (MeV) phosphoprotein P, full length (natural protein)
chain: MATLLRSLALFKRNKDKPPITSGSGGAIRGIKHIIIVPIPGDSSITTRSRLLDRLVRLIGNPDVSGPKLTGALIGILSLFVESPGQLIQRITDDPDVSIRLLEVVQSDQSQSGLTFASRGTNMEDEADQYFSHDDPISSDQSRFGWFENKEISDIEVQDPEGFNMILGTILAQIWVLLAKAVTAPDTAADSELRRWIKYTQQRRVVGEFRLERKWLDVVRNRIAEDLSLRRFMVALILDIKRTPGNKPRIAEMICDIDTYIVEAGLASFILTIKFGIETMYPALGLHEFAGELSTLESLMNLYQQMGETAPYMVILENSIQNKFSAGSYPLLWSYAMGVGVELENSMGGLNFGRSYFDPAYFRLGQEMVRRSAGKVSSTLASELGITAEDARLVSEIAMHTTEDKISRAVGPRQAQVSFLHGDQSENELPRLGGKEDRRVKQSRGEARESYRETGPSRASDARAAHLPTGTPLDIDTASESSQDPQDSRRSADALLRLQAMAGISEEQGSDTDTPIVYNDRNLLD
In turn, B1 came in with a coprecipitation efficiency relative to standard N (% of standard N) of 75.
